Reference: PMC2082129, “A Switch in the Mechanism of Communication between the Two DNA-Binding Sites in the SfiI Restriction Endonuclease” (Journal of Molecular Biology, 2007)
Changes are numbered by the printed parent chain. Names and notes keep the numbering of the source.

B1: SfiI restriction endonuclease, wild type (enzyme)
chain: MHQDYRELSLDELESVEKQTLRTIVQALQQYSKEAKSIFETTAADSSGEVIVLAEDITQYALEVAETYPINRRFAGFIDYKRVRWLPSPHGLLPQVLLVDAKASTEKNRDTLQRSQLPMDAEFRNTSSGEVVTMEAGVIPHLMLQSANDGVLPAVTTSIFVHFYYRELKDVEGRYRELKSIYVLSLPHARLKQRYNPDPDTSFFGAGKHSPARGEVARIRVYFDRLKEACPWRLQELHYSADSEYTQPRWRDLNDAGHEVTKEFLFLER
notes: SfiI restriction endonuclease, expressed from the SfiI restriction gene on pRRS-SfiIR+; tetramer of identical subunits, Mr of the tetramer printed as 124,176; The plasmid carries the SfiI restriction gene, and the printed tetramer Mr of 124,176 fits four whole subunits; In the AUC the protein stood with the 21-bp DNA duplex HEX-21 and Ca2+; also called wt SfiI; SfiI endonuclease; source: E. coli …
B2: SfiI restriction endonuclease, Y68F mutant (enzyme)
chain: B1 chain with Y68F
notes: SfiI restriction endonuclease with Tyr68 replaced by Phe (QuikChange mutagenesis of pRRS-SfiIR+); Same construct as m1 apart from Y68F; also called Y68F protein; source: E. coli ER2238 (transformed with pSYX33-SfiIM+ and a derivative of pRRS-SfiIR+), purified as described previously

Target: the molecule itself
Assay: AUC; sedimentation equilibrium at 20 °C; 2.5 μM enzyme (tetramer) with 2.5 μM HEX-21 DNA duplex; AUC buffer (10 mM Tris-HCl, 50 mM NaCl, 10 mM CaCl2, 1 mM DTT, pH 7.9); absorbance of the HEX label at 539 nm; 10,000, 15,000 and 25,000 rpm, global fit to a single species; oligomeric state of the protein bound to DNA

| Protein | stoichiometry N |
| --- | --- |
| B1 | 4 |
| B2 | 4 |
